Assay results taken from the Human Domainome abundance scans (Beltran et al. 2025).

B1: Tumor protein 63, residues 545 to 610; numbered along this chain, Q9H3D4 (parent)
chain: TDCSIVSFLARLGCSSCLDYFTTQGLTTIYQIEHYSMDDLASLKIPEQFRHAIWKGILDHRQLHEF

Variants of: B1
Experiment: abundance fitness (aPCA) (normalised: wild type 0, dead -1); higher = more abundant; growth selection in yeast, the domain comes from the species named
Conditions: Homo sapiens

Abundance fitness, by site and new letter:
L40: A -0.967 | M -0.134 | S -0.701 | G -0.993 | K -1.02 | D -0.897 | C -0.509 | P -0.893 | Q -0.909 | V -0.122 | T -0.933 | W -0.764 | F -0.043 | E -1.03 | R -1.01 | N -0.888 | I -0.037 | Y -0.277
Y35: D -0.698 | N -0.392 | K -0.147 | W 0.001 | T -0.318 | H -0.103 | G -0.635 | V -0.118 | F -0.012 | I -0.257 | C -0.099 | Q -0.394 | R -0.48 | P -0.955 | E -0.706 | M 0.03 | S -0.251 | A -0.131
I32: S -1.01 | P -0.953 | G -0.832 | N -0.841 | L -0.062 | C -0.249 | F -0.209 | W -0.898 | Q -0.931 | T -0.55 | R -1.01 | H -0.876 | A -0.672 | M -0.169 | E -0.925 | K -0.9
K44: M -0.039 | N -0.021 | R -0.014 | T -0.061 | G 0.013 | Y -0.083 | D -0.011 | H -0.075 | C -0.052 | Q -0.014 | I -0.4 | E 0.002 | F -0.081 | W -0.154 | A -0.037 | L -0.076 | S -0.015 | V -0.23
S42: N 0.013 | T -0.01 | C -0.061 | G 0.051 | I 0.004 | Q -0.001 | E 0.008 | H -0.011 | P -0.176 | Y -0.069 | A -0.019 | V -0.011 | K 0 | D 0.008 | L -0.01 | M -0.001 | W -0.097
I45: S -1.04 | Q -0.965 | K -0.72 | W -0.967 | A -0.721 | G -0.913 | E -0.676 | F -0.358 | V -0.021 | L -0.034 | Y -0.821 | R -1.02 | H -0.925 | C -0.283 | M -0.143 | T -0.588 | P -0.865 | D -0.982
Q31: Y -0.721 | S -0.093 | H -0.047 | I -0.86 | V -0.841 | A -0.108 | N -0.133 | G -0.274 | L -0.431 | P -0.737 | F -0.695 | W -0.812 | D -0.019 | E -0.03 | K -0.296 | R -0.427 | C -0.159
D38: P -0.105 | S -0.029 | I -0.077 | Q -0.026 | N -0.071 | A -0.01 | R -0.03 | W -0.085 | Y -0.055 | K -0.035 | L -0.039 | T -0.033 | E 0.004 | C -0.082 | G -0.021 | M 0.048 | V 0.01 | F -0.07
T28: V -0.1 | F -0.063 | M -0.038 | N -0.087 | D -0.021 | W -0.04 | H -0.056 | A -0.065 | C -0.211 | G -0.069 | L -0.084 | P -0.82 | K -0.028 | Y -0.056 | I -0.192 | Q -0.012 | R -0.051
E33: I -0.139 | L -0.06 | P -0.772 | Y -0.098 | F -0.06 | H -0.039 | K -0.112 | C -0.05 | Q 0.013 | N -0.117 | W -0.046 | T -0.047 | S -0.052 | G -0.074 | A -0.042 | D -0.026
I29: W -0.052 | V -0.019 | K -0.366 | G -0.701 | F 0.063 | A -0.175 | D -0.42 | N -0.719 | Y -0.049 | P -0.309 | R -0.285 | S -0.245 | L -0.027 | Q -0.355 | E -0.366 | M 0.042 | T -0.046 | H -0.432
H34: K -0.018 | G -0.014 | L -0.106 | W -0.06 | V -0.27 | I -0.372 | P -0.188 | T -0.084 | C -0.141 | M -0.044 | F -0.102 | N 0.02 | Q -0.041 | A -0.037 | Y -0.08 | S -0.004 | E -0.007
A41: E -0.012 | H -0.081 | C 0.012 | L -0.06 | P -0.734 | Y -0.103 | W -0.111 | T -0.028 | K 0.008 | V -0.002 | N -0.024 | M -0.088 | Q -0.008 | D -0.035 | G -0.043 | I 0.003 | S -0.04 | R -0.039 | F -0.1
Y30: L -0.044 | S 0.038 | I -0.049 | N -0.046 | T -0.001 | H 0.057 | M -0.025 | W -0.06 | K 0.001 | V -0.034 | F -0.112 | Q 0.029 | C 0.005 | G 0 | E -0.016 | R 0.008 | D 0.009 | P 0.007
D39: A -0.108 | H -0.163 | I -0.449 | K -0.093 | S -0.143 | F -0.478 | L -0.238 | Q -0.032 | T -0.124 | V -0.265 | Y -0.437 | W -0.554 | E -0.047 | R -0.171 | P -0.864
M37: Q -0.07 | F -0.009 | R -0.037 | P -0.014 | D -0.138 | V -0.011 | W -0.071 | S -0.083 | E -0.014 | C -0.083 | Y -0.049 | T -0.076 | G -0.215 | A -0.063 | N -0.132
S36: V -0.09 | F -0.379 | N 0.009 | L -0.177 | Y -0.311 | I -0.188 | M -0.096 | T -0.023 | A -0.062 | Q -0.049 | W -0.436 | E -0.014 | R -0.071 | H -0.13 | P -0.608 | G -0.028
P46: E -0.155 | N -0.396 | V -0.922 | G -0.289 | A -0.406 | T -0.46 | L -0.976 | Y -1.12 | H -0.531 | I -1.01 | Q -0.387 | W -1.1 | S -0.351 | D -0.283 | K -0.384 | F -0.913 | M -0.928 | R -0.66
E47: D 0.012 | M -0.04 | N -0.011 | P -0.009 | H -0.067 | G 0.041 | A -0.014 | I -0.045 | C -0.076 | L -0.022 | F -0.127
L43: R -0.304 | H -0.296 | C -0.171 | K -0.283 | D -0.503 | S -0.386 | Y -0.526 | F -0.245 | V -0.134 | G -0.702 | P -0.564 | M -0.105 | N -0.447 | T -0.396
